In the supplement of paper PMC10126150:
± gives the standard deviation of the averaged measurements.

Tested on: ATP
Experiment: switch fluorescence ratio, 500 uM ATP over buffer (Cy3 cluster intensity, sum of 5 cycles each) (fold (ratio)); higher = stronger signal-on switching upon ATP binding; sequences stand for … in TCGTCGGCAGCGTCAGATGTGTATAAGAGACAGTTTTTTTTTTTTTTTTTTTTTTTTT…TC
Conditions: aptamer strand: ATP DNA aptamer (quencher-CACCTGGGGGAGTATTGCGGAGGAAGG + anchor), 100 nM annealed; ATP concentration: 500 uM
How it was run: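 For every switch-domain sequence, the fluorescence ratio is the mean of per-cluster values, each being summed target-cycle Cy3 intensity over summed buffer-cycle Cy3 intensity. Clusters outside 100-1000 RFU were excluded. On a modified Illumina MiSeq flow-cell, the Cy3-labelled switching-strand clusters were annealed to 100 nM quencher-labelled ATP aptamer, imaged in selection buffer and then after 15 min with 500 uM ATP at 22 °C. Five such cycles were run, with NaOH stripping and re-annealing between them.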
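Also: ATP exposure 15 min at 22 °C before imaging.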

Point of comparison: GGCTGAGGCA, switch fluorescence ratio 1.01 ± 0.029. Against it:
- GGATTGGCGT — within error, 1 ± 0.044
- GGATTGGTCC — within error, 1.14 ± 0.16
- GGATTGGTTT — within error, 0.983 ± 0.03
- GGATTGTCAG — within error, 0.9847 ± 0.0024
- GGATTTGAAT — within error, 1.03 ± 0.031
- GGATTTGGG — lower, 0.964 ± 0.014
- GGATTTTAAA — within error, 1 ± 0.022
- GGATTTTTAG — within error, 0.99134 ± 0.00052
- GGATTTTTTA — the same, 1.006 ± 1.6e-05
- GGCAATATAG — higher, 1.141 ± 0.006
- GGCAATGAAA — within error, 0.999 ± 0.019
- GGCAATTCAG — higher, 1.07 ± 0.019
- GGCACAAAAG — within error, 0.983 ± 0.019
- GGCACATAAG — the same, 1.012 ± 0.0033
- GGCACATGGG — the same, 1.01 ± 0.028
- GGCACCTGGG — within error, 1.02 ± 0.016
- GGCACGTATA — higher, 1.17 ± 0.014
- GGCACTATAT — within error, 1.04 ± 0.023
- GGCACTTCGG — within error, 0.99 ± 0.014
- GGCAGAGGAG — the same, 1.01 ± 0.0063
- GGCAGCCTTT — within error, 1.0169 ± 0.00028
- GGCAGCTGGA — lower, 0.9578 ± 0.0072
- GGCAGGGGGC — within error, 1.02 ± 0.031
- GGCAGGGGTA — within error, 0.995 ± 0.028
- GGCAGGGGTG — higher, 1.11 ± 0.015
- GGCAGGTTTT — within error, 0.996 ± 0.035
- GGCAGTACGT — higher, 1.27 ± 0.066
- GGCAGTCACG — within error, 1.02 ± 0.014
- GGCATAAGTG — within error, 1.016 ± 0.0087
- GGCATATGCG — the same, 1.013 ± 0.0068
- GGCATCGCGA — within error, 1.1 ± 0.064
- GGCATGGGGG — within error, 0.984 ± 0.017
- GGCATGGGTT — within error, 1 ± 0.019
- GGCATTACTA — higher, 1.21 ± 0.022
- GGCATTAGTT — within error, 0.992 ± 0.043
- GGCATTGGGT — the same, 1.0068 ± 0.00028
- GGCCACGTAG — within error, 1.02 ± 0.022
- GGCCATATGT — within error, 1.02 ± 0.016
- GGCCCCGTTT — within error, 1.04 ± 0.18
- GGCCCGGACT — within error, 1.04 ± 0.013
- GGCCCTGGGA — within error, 1.02 ± 0.029
- GGCCGAAGCG — within error, 1.07 ± 0.049
- GGCCGATATG — within error, 0.996 ± 0.015
- GGCCGGCCAG — the same, 1.01 ± 0.047
- GGCCGTAGCG — within error, 0.986 ± 0.025
- GGCCGTGTGG — within error, 0.998 ± 0.023
- GGCCTAGGCT — within error, 1.02 ± 0.013
- GGCCTCCGGT — higher, 1.09 ± 0.018
- GGCCTGGCTA — within error, 0.974 ± 0.02
- GGCCTGGGGG — within error, 1 ± 0.019
- GGCCTTGTCG — within error, 1.06 ± 0.046
- GGCCTTGTG — within error, 0.962 ± 0.035
- GGCCTTTGCT — within error, 1.02 ± 0.041
- GGCGACAGAG — within error, 1.04 ± 0.051
- GGCGAGAGGG — within error, 0.979 ± 0.042
- GGCGATCACG — within error, 0.9834 ± 0.006
- GGCGCACTAT — higher, 1.22 ± 0.051
- GGCGCACTGT — within error, 1.02 ± 0.021
- GGCGCCATGA — within error, 1.034 ± 0.0036
- GGCGCCATGG — within error, 0.986 ± 0.055
- GGCGCCTGGG — within error, 0.9875 ± 0.0033
- GGCGCGGGGG — within error, 1.03 ± 0.023
- GGCGCTTGGG — within error, 0.986 ± 0.022
- GGCGCTTTTC — within error, 1 ± 0.058
- GGCGGAACTA — the same, 1.01 ± 0.018
- GGCGGAAGTA — within error, 1 ± 0.019
- GGCGGAGAGA — within error, 1.03 ± 0.07
- GGCGGAGGGA — within error, 0.99 ± 0.011
- GGCGGATAAG — within error, 0.979 ± 0.013
- GGCGGATATG — the same, 1.009 ± 0.0097
- GGCGGATCGA — within error, 0.998 ± 0.063
- GGCGGGGCAC — within error, 0.989 ± 0.038
- GGCGGGGGGA — the same, 1.01 ± 0.032
- GGCGGGGGTT — within error, 1.03 ± 0.017
- GGCGGGTCGG — within error, 0.972 ± 0.029
- GGCGTAAGTG — lower, 0.953 ± 0.027
- GGCGTATTGG — within error, 0.988 ± 0.027
- GGCGTCGACG — within error, 1.02 ± 0.11
- GGCGTGTGGT — within error, 0.991 ± 0.066
- GGCGTTTTGA — within error, 1.04 ± 0.021
- GGCGTTTTGG — within error, 0.982 ± 0.026
- GGCTAAAATT — within error, 0.999 ± 0.042
- GGCTAAACG — higher, 1.05 ± 0.011
- GGCTAAGGAT — within error, 1 ± 0.018
- GGCTAAGGGT — within error, 0.995 ± 0.013
- GGCTAGCTAC — higher, 1.09 ± 0.012
- GGCTATCGGT — within error, 0.978 ± 0.035
- GGCTATGGTG — within error, 1.004 ± 0.01
- GGCTATTATT — within error, 0.985 ± 0.025
- GGCTATTCCT — the same, 1.01 ± 0.0012
- GGCTATTTTC — within error, 0.991 ± 0.051
- GGCTCAACGA — the same, 1.01 ± 0.045
- GGCTCAGCGG — within error, 1.03 ± 0.07
- GGCTCAGGCA — within error, 1.04 ± 0.023
- GGCTCTGCTA — higher, 1.11 ± 0.047
- GGCTGATTTG — within error, 0.961 ± 0.027
- GGCTGGATTT — within error, 0.98525 ± 0.00086
- GGCTGGCCAT — the same, 1.01 ± 0.025
- GGCTGGCGGC — within error, 0.984 ± 0.026
